# Source: US20240124553A1
# Tests used:
# Assay in all cases: flow cytometry, transfected 293T cells
# [1] = target: CHIKV E2-E1 envelope glycoproteins (strain S27), E2 mutant A41S (chikungunya virus strain S27) (UniProt Q8JUX5)
# [2] = target: CHIKV E2-E1 envelope glycoproteins (strain S27), E2 mutant G55A (chikungunya virus strain S27) (UniProt Q8JUX5)
# [3] = target: CHIKV E2-E1 envelope glycoproteins (strain S27), E2 mutant D60A (chikungunya virus strain S27) (UniProt Q8JUX5)
# [4] = target: CHIKV E2-E1 envelope glycoproteins (strain S27), E2 mutant I121A (chikungunya virus strain S27) (UniProt Q8JUX5)
# [5] = target: CHIKV E2-E1 envelope glycoproteins (strain S27), E2 mutant T110A (chikungunya virus strain S27) (UniProt Q8JUX5)
# [6] = target: CHIKV E2-E1 envelope glycoproteins (strain S27), E2 mutant D77A (chikungunya virus strain S27) (UniProt Q8JUX5)
# [7] = target: CHIKV E2-E1 envelope glycoproteins (strain S27), E2 mutant P106A (chikungunya virus strain S27) (UniProt Q8JUX5)
# [8] = target: CHIKV E2-E1 envelope glycoproteins (strain S27), E2 mutant C105A (chikungunya virus strain S27) (UniProt Q8JUX5)
# [9] = target: CHIKV E2-E1 envelope glycoproteins (strain S27), E2 mutant T92A (chikungunya virus strain S27) (UniProt Q8JUX5)
# [10] = target: CHIKV E2-E1 envelope glycoproteins (strain S27), E2 mutant S88A (chikungunya virus strain S27) (UniProt Q8JUX5)
# [11] = target: CHIKV E2-E1 envelope glycoproteins (strain S27), E2 mutant R68A (chikungunya virus strain S27) (UniProt Q8JUX5)
# [12] = target: CHIKV E2-E1 envelope glycoproteins (strain S27), E2 mutant F84A (chikungunya virus strain S27) (UniProt Q8JUX5)
# [13] = target: CHIKV E2-E1 envelope glycoproteins (strain S27), E2 mutant L111A (chikungunya virus strain S27) (UniProt Q8JUX5)
# [14] = target: CHIKV E2-E1 envelope glycoproteins (strain S27), E2 mutant T112A (chikungunya virus strain S27) (UniProt Q8JUX5)
# [15] = target: CHIKV E2-E1 envelope glycoproteins (strain S27), E2 mutant L34A (chikungunya virus strain S27) (UniProt Q8JUX5)
# [16] = target: CHIKV E2-E1 envelope glycoproteins (strain S27), E2 mutant R104A (chikungunya virus strain S27) (UniProt Q8JUX5)
# [17] = target: CHIKV E2-E1 envelope glycoproteins (strain S27), E2 mutant R119A (chikungunya virus strain S27) (UniProt Q8JUX5)
# [18] = target: CHIKV E2-E1 envelope glycoproteins (strain S27), E2 mutant L83A (chikungunya virus strain S27) (UniProt Q8JUX5)
# [19] = target: CHIKV E2-E1 envelope glycoproteins (strain S27), E2 mutant E109A (chikungunya virus strain S27) (UniProt Q8JUX5)
# [20] = target: CHIKV E2-E1 envelope glycoproteins (strain S27), E2 mutant K66A (chikungunya virus strain S27) (UniProt Q8JUX5)
# [21] = target: CHIKV E2-E1 envelope glycoproteins (strain S27), E2 mutant L52A (chikungunya virus strain S27) (UniProt Q8JUX5)
# [22] = target: CHIKV E2-E1 envelope glycoproteins (strain S27), E2 mutant G108A (chikungunya virus strain S27) (UniProt Q8JUX5)
# [23] = target: CHIKV E2-E1 envelope glycoproteins (strain S27), E2 mutant S61A (chikungunya virus strain S27) (UniProt Q8JUX5)
# [24] = target: CHIKV E2-E1 envelope glycoproteins (strain S27), E2 mutant T45A (chikungunya virus strain S27) (UniProt Q8JUX5)
# [25] = target: CHIKV E2-E1 envelope glycoproteins (strain S27), E2 mutant T96A (chikungunya virus strain S27) (UniProt Q8JUX5)
# [26] = target: CHIKV E2-E1 envelope glycoproteins (strain S27), E2 mutant R80A (chikungunya virus strain S27) (UniProt Q8JUX5)
# [27] = target: CHIKV E2-E1 envelope glycoproteins (strain S27), E2 mutant G114A (chikungunya virus strain S27) (UniProt Q8JUX5)
# [28] = target: CHIKV E2-E1 envelope glycoproteins (strain S27), E2 mutant D63A (chikungunya virus strain S27) (UniProt Q8JUX5)
# [29] = target: CHIKV E2-E1 envelope glycoproteins (strain S27), E2 mutant H130A (chikungunya virus strain S27) (UniProt Q8JUX5)
# [30] = target: CHIKV E2-E1 envelope glycoproteins (strain S27), E2 mutant G95A (chikungunya virus strain S27) (UniProt Q8JUX5)
# [31] = target: CHIKV E2-E1 envelope glycoproteins (strain S27), E2 mutant P90A (chikungunya virus strain S27) (UniProt Q8JUX5)
# [32] = target: CHIKV E2-E1 envelope glycoproteins (strain S27), E2 mutant R86A (chikungunya virus strain S27) (UniProt Q8JUX5)
# [33] = target: CHIKV E2-E1 envelope glycoproteins (strain S27), E2 mutant F129A (chikungunya virus strain S27) (UniProt Q8JUX5)
Substance,Binding Reactivity (% WT) [1] [% WT],Binding Reactivity (% WT) [2] [% WT],Binding Reactivity (% WT) [3] [% WT],Binding Reactivity (% WT) [4] [% WT],Binding Reactivity (% WT) [5] [% WT],Binding Reactivity (% WT) [6] [% WT],Binding Reactivity (% WT) [7] [% WT],Binding Reactivity (% WT) [8] [% WT],Binding Reactivity (% WT) [9] [% WT],Binding Reactivity (% WT) [10] [% WT],Binding Reactivity (% WT) [11] [% WT],Binding Reactivity (% WT) [12] [% WT],Binding Reactivity (% WT) [13] [% WT],Binding Reactivity (% WT) [14] [% WT],Binding Reactivity (% WT) [15] [% WT],Binding Reactivity (% WT) [16] [% WT],Binding Reactivity (% WT) [17] [% WT],Binding Reactivity (% WT) [18] [% WT],Binding Reactivity (% WT) [19] [% WT],Binding Reactivity (% WT) [20] [% WT],other results
CHIKV mAb IM-CKV065 (antibody),33.8,86.2,114,111,72.1,61.2,98.1,-2.9,93.2,101,88.1,51.6,6.6,16.2,16.3,66.9,120,6.2,82.6,99.6,Binding Reactivity (% WT) [21]: 142 % WT; Binding Reactivity (% WT) [22]: 34.8 % WT; Binding Reactivity (% WT) [23]: 112 % WT; Binding Reactivity (% WT) [24]: 62.4 % WT; Binding Reactivity (% WT) [25]: 113 % WT; Binding Reactivity (% WT) [26]: 125 % WT; Binding Reactivity (% WT) [27]: 35.2 % WT; Binding Reactivity (% WT) [28]: 64.8 % WT; Binding Reactivity (% WT) [29]: 104 % WT; Binding Reactivity (% WT) [30]: 92.6 % WT; Binding Reactivity (% WT) [31]: 108 % WT; Binding Reactivity (% WT) [32]: 102 % WT; Binding Reactivity (% WT) [33]: -1.1 % WT
CHIKV mAb IM-CKV063 (antibody),51.1,83.3,64.8,109,88.1,92.2,94.3,0.4,84.5,89.5,67.1,61.7,20.3,43.1,29.4,75.7,72,18.7,76.6,84.2,Binding Reactivity (% WT) [21]: 107 % WT; Binding Reactivity (% WT) [22]: 59 % WT; Binding Reactivity (% WT) [23]: 100 % WT; Binding Reactivity (% WT) [24]: 62.1 % WT; Binding Reactivity (% WT) [25]: 111 % WT; Binding Reactivity (% WT) [26]: 86.3 % WT; Binding Reactivity (% WT) [27]: 58.4 % WT; Binding Reactivity (% WT) [28]: 65.8 % WT; Binding Reactivity (% WT) [29]: 91 % WT; Binding Reactivity (% WT) [30]: 88.9 % WT; Binding Reactivity (% WT) [31]: 95.3 % WT; Binding Reactivity (% WT) [32]: 127 % WT; Binding Reactivity (% WT) [33]: 3.9 % WT
